These results are taken from patent publication US20150174076A1, “MUCOADHESIVE DEVICES FOR DELIVERY OF ACTIVE AGENTS” (Entrega, Inc., priority 2012, published 2015).

For the series, the system named is Caco-2 monolayers. In words: Transport of FITC-insulin across Caco-2 monolayer. It counts as in vitro ADME, human. How it is done:
Caco-2 cell line HTB-37 (American Type Culture Collection, Rockville, Md.), derived from human colon cells, was used for all experiments. Cells were maintained at 37° C. in DMEM supplemented with 25 IU/ml of penicillin, 25 mg/L of streptomycin, 250 μg/L of amphotericin B and 100 ml/L of fetal bovine serum. Monolayers were grown on BD Biocoat™ collagen filter supports (Discovery Labware, Bedford. Mass.). […] At the end of the growth period, the integrity of the cell monolayer was confirmed by transepithelial electrical resistance (TEER) measurements (Millicell-ERS voltohmmeter, Millipore. Billerica, Mass.). Only monolayers with TEER values over 300 Ω cm^2 were used for further experimentation. A solution of FITC-insulin in DMEM was placed on Caco-2 monolayers at various concentrations and samples were collected from the basolateral side and analyzed for fluorescence. To determine insulin transport from wafers, FITC-insulin-containing wafers were placed on Caco-2 monolayers. Samples were taken from the basolateral side and analyzed for insulin concentration.

As to “insulin free in solution: solution of FITC-insulin in DMEM placed on Caco-2 monolayers”, the “transport of insulin across Caco-2 monolayers” value is on record as “dose-dependent”.
